Laboratory results reported in patent US20090004190A1, “Rage Fusion Proteins And Methods Of Use” (priority 2006, published 2009).

Legend:
[1] = tested on: transgenic mice expressing human Swedish mutant APP; experiment: Mouse model of AD (APP transgenic mice): amyloid deposition and Morris water maze; type: in vivo
Procedure: Experiments were performed to evaluate whether TTP-4000 could affect amyloid formation and cognitive dysfunction in a mouse model of AD. The experiments utilized transgenic mice expressing the human Swedish mutant amyloid precursor protein (APP) under the control of the PDGF-B chain promoter. Over time, these mice generate high levels of the RAGE ligand, amyloid beta (Aβ).
The APP mice (male) used in this experiment were designed by microinjection of the human APP gene (with the Swedish and London mutations) into mouse eggs under the control of the platelet-derived growth factor B (PDGF-B) chain gene promoter. The mice were generated on a C57BL/6 background and were developed by Molecular Therapeutics Inc. Animals were fed ad libitum and maintained by brother sister mating. The mice generated from this construct develop amyloid deposits starting at 6 months of age. Animals were aged for 6 months and then maintained for 90 days and sacrificed for amyloid quantification.
APP transgenic mice were administered vehicle or TTP4000 every other day [qod (i.p.)] for 90 days starting at 6 months of age. At the end of the experiment, animals were sacrificed and examined for Aβ plaque burden in the brain (i.e., plaque number). A 6-month control APP group was used to determine the baseline of amyloid deposits. In addition, at the end of the study, the animals were subjected to behavioral (Morris water maze) analysis. The investigators were blinded to the study compounds. Samples were given to the mice at 0.25 ml/mouse/every other day.
For histological examination, the animals were anesthetized with an intraperitoneal injection (IP) of sodium pentobarbital (50 mg/kg). The animals were transcardially perfused with 4° C., phosphate-buffered saline (PBS) followed by 4% paraformaldehyde. The brains were removed and placed in 4% paraformaldehyde over night. The brains were processed to paraffin and embedded. Ten serial 30-μm thick sections through the brain were obtained. Sections were subjected to primary antibody overnight at 4° C. (Aβ peptide antibody) in order to detect the amyloid deposits in the brain of the transgenic animals (Guo et al., J. Neurosci., 22:5900-5909 (2002)). Sections were washed in Tris-buffered saline (TBS) and secondary antibody was added and incubated for 1 hour at room temperature. After washing, the sections were incubated as instructed in the Vector ABC Elite kit (Vector Laboratories) and stained with […] (DAB). The reactions were stopped in water and cover-slipped after treatment with xylene. The amyloid area in each section was determined with a computer-assisted image analysis system, consisting of a Power Macintosh computer equipped with a Quick Capture frame grabber card, Hitachi CCD camera mounted on an Olympus microscope and camera stand. NIH Image Analysis Software, v. 1.55 was used. The images were captured and the total area of amyloid was determined over the ten sections. A single operator blinded to treatment status performed all measurements. Summing the amyloid volumes of the sections and dividing by the total number of sections was done to calculate the amyloid volume.
For quantitative analysis, an enzyme-linked immunosorbent assay (ELISA) was used to measure the levels of human total Aβ, Aβtotal and Aβ1-42 in the brains of APP transgenic mice (Biosource International, Camarillo, Calif.). Aβtotal and Aβ1-42 were extracted from mouse brains by guanidine hydrochloride and quantified as described by the manufacturer. […]

[2] = tested on: Zucker diabetic rats, restenosis following vascular injury; experiment: Diabetic rat model of restenosis (balloon injury of left common carotid artery); type: in vivo; conditions: for Luminal area / Medial area: IP, 21 days
Procedure: In these experiments, balloon injury of left common carotid artery was performed in Zucker diabetic and nondiabetic rats using standard procedure. […] A maintenance dose was delivered every other day until day 7 after injury (i.e., at day 1, 3, 5 and 7 after injury). The maintenance dose was high=1 mg/animal for one group, or low=0.3 mg/animal for the second group. To measure vascular smooth muscle cell (VSMC) proliferation, animals were sacrificed at 4 days and 21 days after injury.
For the measurement of cell proliferation, 4 day animals received intraperitoneal injection of bromodeoxyuridine (BrDdU) 50 mg/kg at 18, 12, and 2 hours before euthanasia. After sacrifice, the entire left and right carotid arteries were harvested. Specimens were stored in Histochoice for at least 24 hours before embedding. Assessment of VSMC proliferation was performed using mouse anti-BrdU monoclonal antibody. A fluorescence labeled goat anti-mouse secondary antibody was applied. The number of BrdU-positive nuclei per section were counted by two observers blinded to the treatment regimens.
The remaining rats were sacrificed at 21 days for morphometric analysis. Morphometric analyses were performed by an observer blinded to the study groups, using computerized digital microscopic planimetry software Image-Pro Plus on serial sections, ([…]) carotid arteries stained by Van Gieson staining. All data were expressed as mean±SD. Statistical analysis was performed with use of SPSS software. Continuous variables were compared using unpaired t tests. A values of P≦0.05 was considered to be statistically significant.

[3] = High dose 1.0 mg/animal qod × 4, loading dose 3 mg/animal
[4] = Low dose 0.3 mg/animal qod × 4, loading dose 3 mg/animal

B1: TTP-4000: four domain RAGE fusion protein: human RAGE V and C1 domains with interdomain linkers (to residue 251) fused to human IgG1 CH2 and CH3; SEQ ID NO: 34/56 (protein, listed as Homo sapiens)
chain: QNITARIGEPLVLKCKGAPKKPPQRLEWKLNTGRTEAWKVLSPQGGGPWDSVARVLPNGSLFLPAVGIQDEGIFRCQAMNRNGKETKSNYRVRVYQIPGKPEIVDSASELTAGVPNKVGTCVSEGSYPAGTLSWHLDGKPLVPNEKGVSVKEQTRRHPETGLFTLQSELMVTPARGGDPRPTFSCSFSPGLPRHRALRTAPIQPRVWEPVPLEEVQLVVEPEGGAVAPPSVFLFPPKPKDTLMISRTPEVTCVVVDVSHEDPEVKFNWYVDGVEVHNAKTKPREEQYNSTYRVVSVLTVLHQDWLNGKEYKCKVSNKALPAPIEKTISKAKGQPREPQVYTLPPSRDELTKNQVSLTCLVKGFYPSDIAVEWESNGQPENNYKTTPPVLDSDGSFFLYSKLTVDKSRWQQGNVFSCSVMHEALHNHYTQKSLSLSPGK
- inflammatory cytokines IL-1 and TNF-α ([1]; data not shown): can reduce
- Aβ plaques in the brain ([1]; treated for 3 months, vs vehicle and human IgG1, FIG. 14A): fewer Aβ plaques
- cognitive dysfunction (Morris water maze) ([1]; treated for 3 months, vs vehicle and human IgG1, FIG. 14B): less cognitive dysfunction
- vascular smooth muscle cell proliferation (BrdU-positive nuclei) ([2]; 4 days after injury, dose-responsive, FIG. 13B): significantly reduced
- Luminal area [2, 3]: 0.16 ± 0.02 mm^2
- Medial area [2, 3]: 0.11 ± 0.01 mm^2
- Luminal area [2, 4]: 0.18 ± 0.04 mm^2
- Medial area [2, 4]: 0.11 ± 0.02 mm^2
